Publication PMC2114910 (The Journal of Cell Biology, 1987)

Key:
[1] = target: T1, F-actin from chicken breast muscle (chicken (endogenous in breast muscle), UniProt P68139 1-377); assay: cell-based or functional assay
[2] = target: T1, F-actin from chicken breast muscle; assay: co-sedimentation

B1: 110-kD protein-calmodulin complex of the intestinal microvillus (complex)
chain 1: MEATTSLLDAAAVGDLVMLDPLSEESLLRTLQERFSRGEIYTYIGEVVISVNPYKPLPIYTPEKVEEYHNCNFFAVKPHIYAIADDAYRSLRDRDRDQCILITGESGAGKTEASKLVMSYVAAVSSKGEEVDKVKEQLLQSNPVLEAFGNAKTIRNDNSSRFGKYMDVEFDFKGDPLGGVISNYLLEKSRIVRHVKGERNFHIFYQLLAGGSAQLLQQLKLRPDCSHYGYLNHEKSVLPGMDDAANFRAMQDAMAIIGFAPAEVTALLEVTAVVLKLGNVKLSSCFQASGMEASSITEPRELQEISQLIGLDPSTLEQALCSRTVKVRDESVLTALSVSQGYYGRDALAKNIYSRLFDWLVNRINTSIQVKPGKQRKVMGVLDIYGFEIFQDNGFEQFIINYCNEKLQQIFILMTLKEEQEEYVREGIQWTPVEFFDNSIICDLIENSKVGILAMLDEECLRPGTVNEDTFITKLNQIFASHKRYESKETLNAKHVTDVSLPLRCFRIHHYAGKVTYNVTGFIEKNNDLLFRDLSQAMWAARHTLLRSLFPEGDPQRPSLKLPPTTGSQFKASVATLMKNLYSKNPNYIRCIKPNDTKTAMLFTPDLVLAQVRYLGLMENVRVRRAGYAFRQLYQPFLERYKMLSRKTWPRWTGGDREGAEVLLAELKFPPEELAYGHTKIFIRSPRTLFDLEKRRQQRVAELATLIQKMFRGWCCRKRYQLMRKSQILISAWFRGHMQRNRYKQMKRSVLLLQAYARGWKTRRMYRRYFRSDACTRLSNFIYRRMVQKYLMGLQKNLPPMAVLDRTWPPAPYKFLSDANQELKSIFYRWKCKKYREQLTPQQRAMLQAKLCASELFKDKKALYAQSLQQPFRGEYLGLTQNRKYQKLQAVAKDKLVMAEAVQKVNRANGKTVPRLLLLTTEHLVLADPKAAQPKMVLSLCDIQGASVSRFSDGLLALHLKETSTAGGKGDLLLVSPHLIELVTRLHQTLMDATAQALPLSIADQFSTRFPKGDVAVTVVESAKGGGDVPVCKKRGSHKMEILVH
chain 2: […]
actin activation of the MgATPase activity of 110K-CM, F-actin 0.1 to 60 uM, 35C [1]: 2.5 to 3.5 fold
mass ratio of 110K-CM to actin at apparent saturation [2]: ~20 110K-CM:actin by mass
